T1: Sla1-3, P32790
T1 sequence (P32790 344-424, looked up): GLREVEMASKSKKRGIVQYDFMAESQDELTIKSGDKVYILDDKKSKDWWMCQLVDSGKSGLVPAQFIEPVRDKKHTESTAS

T2: Lsb3, P43603
T2 sequence (P43603 385-451, looked up): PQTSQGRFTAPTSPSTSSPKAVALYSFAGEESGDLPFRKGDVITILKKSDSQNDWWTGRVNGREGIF

T3: Bbc1, P47068
T3 sequence (P47068 1-78, looked up): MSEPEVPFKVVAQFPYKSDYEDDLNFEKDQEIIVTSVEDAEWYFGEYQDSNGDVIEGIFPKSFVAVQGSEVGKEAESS

T4: Nbp2, Q12163
T4 sequence (Q12163 103-180, looked up): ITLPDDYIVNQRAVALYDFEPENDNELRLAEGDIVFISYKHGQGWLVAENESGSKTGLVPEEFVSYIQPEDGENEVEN

T5: Hse1, P38753
T5 sequence (P38753 208-285, looked up): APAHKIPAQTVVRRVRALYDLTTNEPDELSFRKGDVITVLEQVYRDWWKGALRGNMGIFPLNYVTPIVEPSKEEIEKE

T6: Boi2, P39969
T6 sequence (P39969 32-116, looked up): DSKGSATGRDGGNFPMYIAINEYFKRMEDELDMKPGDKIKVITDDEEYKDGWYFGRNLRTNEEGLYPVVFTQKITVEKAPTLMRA

T7: Cdc25, P04821
T7 sequence (P04821 50-136, looked up): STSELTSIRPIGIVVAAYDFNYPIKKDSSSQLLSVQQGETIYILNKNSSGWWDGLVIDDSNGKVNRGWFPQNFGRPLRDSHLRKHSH

T8: Abp1, P15891
T8 sequence (P15891 535-592, looked up): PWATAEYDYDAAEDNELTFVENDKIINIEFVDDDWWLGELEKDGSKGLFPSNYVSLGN

T9: Cyk3, Q07533
T9 sequence (Q07533 1-83, looked up): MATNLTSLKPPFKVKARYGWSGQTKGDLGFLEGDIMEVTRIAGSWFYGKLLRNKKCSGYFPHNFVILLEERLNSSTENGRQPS

T10: Lsb1, P53281
T10 sequence (P53281 45-122, looked up): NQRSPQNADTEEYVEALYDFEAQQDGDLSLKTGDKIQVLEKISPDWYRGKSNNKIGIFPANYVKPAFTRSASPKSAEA

T11: Hof1, Q05080
T11 sequence (Q05080 590-669, looked up): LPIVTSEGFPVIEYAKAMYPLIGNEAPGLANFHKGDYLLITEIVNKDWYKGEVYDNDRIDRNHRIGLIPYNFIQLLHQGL

T12: Fus1, P11710
T12 sequence (P11710 432-512, looked up): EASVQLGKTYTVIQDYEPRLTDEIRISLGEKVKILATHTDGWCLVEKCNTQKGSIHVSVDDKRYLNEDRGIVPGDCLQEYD

T13: Myo5, Q04439
T13 sequence (Q04439 1072-1160, looked up): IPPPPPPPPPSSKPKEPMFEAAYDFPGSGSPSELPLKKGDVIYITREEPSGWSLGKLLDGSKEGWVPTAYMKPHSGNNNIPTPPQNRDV

T14: Pex13, P80667
T14 sequence (P80667 295-386, looked up): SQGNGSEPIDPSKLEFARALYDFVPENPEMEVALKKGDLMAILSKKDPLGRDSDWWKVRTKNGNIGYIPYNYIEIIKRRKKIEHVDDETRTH

T15: Boi1, P38041
T15 sequence (P38041 1-86, looked up): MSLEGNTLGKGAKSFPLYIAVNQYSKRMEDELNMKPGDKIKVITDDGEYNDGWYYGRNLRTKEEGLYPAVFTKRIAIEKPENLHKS

T16: Bzz1-2, P38822
T16 sequence (P38822 568-633, looked up): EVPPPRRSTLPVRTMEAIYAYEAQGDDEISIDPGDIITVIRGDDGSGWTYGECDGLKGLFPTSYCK

T17: Lsb4, P32793
T17 sequence (P32793 402-468, looked up): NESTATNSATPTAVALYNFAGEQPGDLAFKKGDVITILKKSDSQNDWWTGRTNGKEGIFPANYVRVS

T18: Bzz1-1, P38822
T18 sequence (P38822 478-572, looked up): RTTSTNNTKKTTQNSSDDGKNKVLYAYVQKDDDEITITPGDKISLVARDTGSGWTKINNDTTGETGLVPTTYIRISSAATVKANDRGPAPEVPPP

T19: Bud14, P27637
T19 sequence (P27637 247-328, looked up): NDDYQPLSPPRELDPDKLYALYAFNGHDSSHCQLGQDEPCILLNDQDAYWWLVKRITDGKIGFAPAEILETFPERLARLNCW

T20: Pin3, Q06449
T20 sequence (Q06449 53-122, looked up): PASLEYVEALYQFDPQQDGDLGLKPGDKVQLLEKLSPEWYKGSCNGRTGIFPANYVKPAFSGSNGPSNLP

T21: Sla1-2, P32790
T21 sequence (P32790 60-140, looked up): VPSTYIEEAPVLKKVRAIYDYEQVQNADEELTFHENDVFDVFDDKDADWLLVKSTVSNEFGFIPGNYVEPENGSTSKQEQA


Columns and labels:
Test in all cases: SPOT array
Bem1-2, P29366 = details: median of control spots 4347
Sequence of Bem1-2, P29366 (P29366 139-227): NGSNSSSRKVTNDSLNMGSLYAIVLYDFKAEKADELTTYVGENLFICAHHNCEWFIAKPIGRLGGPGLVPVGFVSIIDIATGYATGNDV

Sla1-3, P32790 = molecular target: T1, Sla1-3, P32790; details: median of control spots 5475
Lsb3, P43603 = molecular target: T2, Lsb3, P43603; details: median of control spots 406
Bbc1, P47068 = molecular target: T3, Bbc1, P47068; details: median of control spots 796
Nbp2, Q12163 = molecular target: T4, Nbp2, Q12163; details: median of control spots 357
Hse1, P38753 = molecular target: T5, Hse1, P38753; details: median of control spots 1727
Boi2, P39969 = molecular target: T6, Boi2, P39969; details: median of control spots 1161
GST = details: median of control spots 978
Cdc25, P04821 = molecular target: T7, Cdc25, P04821; details: median of control spots 969
Abp1, P15891 = molecular target: T8, Abp1, P15891; details: median of control spots 935
Cyk3, Q07533 = molecular target: T9, Cyk3, Q07533; details: median of control spots 1451
Lsb1, P53281 = molecular target: T10, Lsb1, P53281; details: median of control spots 388
Hof1, Q05080 = molecular target: T11, Hof1, Q05080; details: median of control spots 4086
Myo3, P36006 = details: median of control spots 468
Fus1, P11710 = molecular target: T12, Fus1, P11710; details: median of control spots 1200
Myo5, Q04439 = molecular target: T13, Myo5, Q04439; details: median of control spots 471
Pex13, P80667 = molecular target: T14, Pex13, P80667; details: median of control spots 1341
Boi1, P38041 = molecular target: T15, Boi1, P38041; details: median of control spots 1162
Bzz1-2, P38822 = molecular target: T16, Bzz1-2, P38822; details: median of control spots 4538
Lsb4, P32793 = molecular target: T17, Lsb4, P32793; details: median of control spots 397
Bzz1-1, P38822 = molecular target: T18, Bzz1-1, P38822; details: median of control spots 4446
Bud14, P27637 = molecular target: T19, Bud14, P27637; details: median of control spots 956
Rvs167, P39743 = details: median of control spots 2707
Sequence of Rvs167, P39743 (P39743 419-482): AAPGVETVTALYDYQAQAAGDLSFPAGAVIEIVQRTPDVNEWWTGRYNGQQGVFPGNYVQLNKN

Sho1, P40073 = details: median of control spots 1148
Sequence of Sho1, P40073 (P40073 287-367): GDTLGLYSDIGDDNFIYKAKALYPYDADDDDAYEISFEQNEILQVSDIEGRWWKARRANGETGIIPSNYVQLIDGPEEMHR

Pin3, Q06449 = molecular target: T20, Pin3, Q06449; details: median of control spots 2171
Sla1-2, P32790 = molecular target: T21, Sla1-2, P32790; details: median of control spots 712
Bem1-1, P29366 = details: median of control spots 4282
Sequence of Bem1-1, P29366 (P29366 55-141): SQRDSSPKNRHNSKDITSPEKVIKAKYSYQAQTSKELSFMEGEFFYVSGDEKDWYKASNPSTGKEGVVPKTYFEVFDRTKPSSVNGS

Binder | SPOT intensity (Bem1-2, P29366) | SPOT intensity (Sla1-3, P32790) | SPOT intensity (Lsb3, P43603) | SPOT intensity (Bbc1, P47068) | SPOT intensity (Nbp2, Q12163) | SPOT intensity (Hse1, P38753) | SPOT intensity (Boi2, P39969) | SPOT intensity (GST) | SPOT intensity (Cdc25, P04821) | SPOT intensity (Abp1, P15891) | SPOT intensity (Cyk3, Q07533) | SPOT intensity (Lsb1, P53281) | SPOT intensity (Hof1, Q05080) | SPOT intensity (Myo3, P36006) | SPOT intensity (Fus1, P11710) | SPOT intensity (Myo5, Q04439) | SPOT intensity (Pex13, P80667) | SPOT intensity (Boi1, P38041) | SPOT intensity (Bzz1-2, P38822) | SPOT intensity (Lsb4, P32793) | other results
RFKRHRLEFPFNESE | 4 | 97 | 0 | 36 | 14 | 32 | 0 | 0 | 142 | 36 | 0 | 53 | 9 | 0 | 34 | 0 | 13 | 0 | 7 | 0 | SPOT intensity (Bzz1-1, P38822): 0; SPOT intensity (Bud14, P27637): 4; SPOT intensity (Rvs167, P39743): 0; SPOT intensity (Sho1, P40073): 41; SPOT intensity (Pin3, Q06449): 15; SPOT intensity (Sla1-2, P32790): 0; SPOT intensity (Bem1-1, P29366): 1
GKKVRPLLVLLLSRA | 0 | 0 | 6 | 67 | 10 | 0 | 4 | 0 | 132 | 37 | 0 | 0 | 0 | 7 | 4 | 1 | 19 | 14 | 0 | 2 | SPOT intensity (Bzz1-1, P38822): 0; SPOT intensity (Bud14, P27637): 9; SPOT intensity (Rvs167, P39743): 0; SPOT intensity (Sho1, P40073): 51; SPOT intensity (Pin3, Q06449): 0; SPOT intensity (Sla1-2, P32790): 0; SPOT intensity (Bem1-1, P29366): 0
FHLNPKRSAVLYDRP | 308 | 140 | 0 | 10 | 0 | 40 | 0 | 5 | 25 | 24 | 0 | 0 | 83 | 0 | 309 | 1 | 35 | 0 | 38 | 0 | SPOT intensity (Bzz1-1, P38822): 3; SPOT intensity (Bud14, P27637): 9; SPOT intensity (Rvs167, P39743): 7; SPOT intensity (Sho1, P40073): 35; SPOT intensity (Pin3, Q06449): 32; SPOT intensity (Sla1-2, P32790): 0; SPOT intensity (Bem1-1, P29366): 245

Now from value to binder, other results behind:

SPOT intensity (Bem1-2, P29366) | SPOT intensity (Sla1-3, P32790) | SPOT intensity (Lsb3, P43603) | SPOT intensity (Bbc1, P47068) | SPOT intensity (Nbp2, Q12163) | SPOT intensity (Hse1, P38753) | SPOT intensity (Boi2, P39969) | SPOT intensity (GST) | SPOT intensity (Cdc25, P04821) | SPOT intensity (Abp1, P15891) | SPOT intensity (Cyk3, Q07533) | SPOT intensity (Lsb1, P53281) | SPOT intensity (Hof1, Q05080) | SPOT intensity (Myo3, P36006) | SPOT intensity (Fus1, P11710) | SPOT intensity (Myo5, Q04439) | SPOT intensity (Pex13, P80667) | SPOT intensity (Boi1, P38041) | SPOT intensity (Bzz1-2, P38822) | SPOT intensity (Lsb4, P32793) | Binder | other results
0 | 0 | 0 | 0 | 0 | 0 | 1 | 0 | 66 | 0 | 0 | 0 | 0 | 0 | 0 | 0 | 14 | 1 | 0 | 0 | SKSRLLIELPEGFFT | SPOT intensity (Bzz1-1, P38822): 1; SPOT intensity (Bud14, P27637): 1; SPOT intensity (Rvs167, P39743): 0; SPOT intensity (Sho1, P40073): 10; SPOT intensity (Pin3, Q06449): 4; SPOT intensity (Sla1-2, P32790): 0; SPOT intensity (Bem1-1, P29366): 0
0 | 4 | 8 | 35 | 17 | 5 | 0 | 0 | 36 | 189 | 0 | 23 | 0 | 17 | 9 | 3 | 56 | 0 | 2 | 38 | ILARAILTIPRVLDK | SPOT intensity (Bzz1-1, P38822): 0; SPOT intensity (Bud14, P27637): 10; SPOT intensity (Rvs167, P39743): 0; SPOT intensity (Sho1, P40073): 137; SPOT intensity (Pin3, Q06449): 107; SPOT intensity (Sla1-2, P32790): 6; SPOT intensity (Bem1-1, P29366): 1
4 | 7 | 6 | 339 | 215 | 25 | 4 | 2 | 176 | 166 | 4 | 47 | 12 | 34 | 168 | 10 | 78 | 23 | 7 | 25 | LLIRWLILMPLVGSR | SPOT intensity (Bzz1-1, P38822): 3; SPOT intensity (Bud14, P27637): 29; SPOT intensity (Rvs167, P39743): 1; SPOT intensity (Sho1, P40073): 150; SPOT intensity (Pin3, Q06449): 47; SPOT intensity (Sla1-2, P32790): 3; SPOT intensity (Bem1-1, P29366): 0
